Data from patent publication US20240059757A1.
Where two headings read alike, the source gives them in different places.

How the values were obtained:
[1] = target: SARS-CoV-2 Spike protein (SARS-CoV-2 Wuhan-Hu-1) (UniProt P0DTC2); test: cell-based or functional assay
[2] = target: PANG/GD spike protein (PANG/GD); test: cell-based or functional assay
[3] = target: PANG/GX spike protein (PANG/GX); test: cell-based or functional assay
[4] = target: WIV1 spike protein RBD (WIV1); test: BLI
[5] = target: BGR2008 spike protein RBD (BGR2008); test: BLI
[6] = target: WIV1 spike protein RBD (WIV1); test: BLI; remark: listed apart in the source
[7] = target: BGR2008 spike protein RBD (BGR2008); test: BLI; remark: listed apart in the source
[8] = target: SC2018 spike RBD (SC2018); test: BLI; *no optimal fitting
[9] = target: PANG/GD spike protein RBD (PANG/GD); test: ELISA
[10] = target: BtKY72 spike protein RBD (BtKY72); test: ELISA
[11] = target: BGR2008 spike protein RBD (BGR2008); test: ELISA
[12] = target: RaTG13 spike protein RBD (RaTG13); test: ELISA
[13] = target: PANG/GX spike protein RBD (PANG/GX); test: ELISA
[14] = target: SX2011 spike RBD (SX2011); test: ELISA
[15] = target: Anlong112 spike RBD (Anlong112); test: ELISA
[16] = target: SC2018 spike RBD (SC2018); test: ELISA
[17] = target: YN2013 spike RBD (YN2013); test: ELISA
[18] = target: PANG/GX spike protein RBD (PANG/GX)
[19] = target: BtKY72 spike protein RBD (BtKY72)
[20] = target: BGR2008 spike protein RBD (BGR2008)
[21] = target: ZC45 spike protein RBD (ZC45)
[22] = target: WIV1 spike protein RBD (WIV1)
[23] = target: PANG/GD spike protein RBD (PANG/GD)
[24] = target: RaTG13 spike protein RBD (RaTG13)
[25] = target: SC2018 spike RBD (SC2018)

Sequence of S2X259 Fab (VH): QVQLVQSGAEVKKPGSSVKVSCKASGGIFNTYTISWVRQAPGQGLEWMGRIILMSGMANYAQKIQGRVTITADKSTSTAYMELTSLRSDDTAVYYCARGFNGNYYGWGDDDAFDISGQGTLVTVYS
Sequence of S2X259 Fab (VL): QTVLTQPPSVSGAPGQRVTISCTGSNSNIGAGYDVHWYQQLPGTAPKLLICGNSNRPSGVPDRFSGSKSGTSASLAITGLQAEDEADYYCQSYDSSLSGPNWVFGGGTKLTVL
Sequence of S2X259 (antibody) (VH): as the sequence (VH) above
Sequence of S2X259 (antibody) (VL): as the sequence (VL) above

S2E12-LS (antibody)
neutralization EC50 (interpolated) [1]: 0.0014 µg/mL | neutralization EC90 (interpolated) [1]: 0.0119 µg/mL | neutralization IC50 [1]: 0.0014 µg/mL

S2M11-LS (antibody)
neutralization EC50 (interpolated) [1]: 0.0011 µg/mL | neutralization EC90 (interpolated) [1]: 0.0144 µg/mL | neutralization IC50 [1]: 0.000914 µg/mL

S2X259 (antibody)
neutralization IC50 [2]: 0.179 µg/mL | neutralization IC50 [3]: 1.32 µg/mL | Kd [4]: 0.57 nM | Kd [5]: 1.04 nM | Kd [6]: 0.61 nM | Kd [7]: 1.24 nM | Kd [8]: 6.93 nM | EC50 [9]: 0.0362 µg/mL | EC50 [10]: 0.0376 µg/mL | EC50 [11]: 0.0308 µg/mL | EC50 [12]: 0.0401 µg/mL | EC50 [13]: 0.0281 µg/mL | EC50 [14]: 0.001 to 0.05 µg/mL | EC50 [15]: 0.1 to 1 µg/mL | EC50 [16]: 0.001 to 0.05 µg/mL | EC50 [17]: 0.001 to 0.05 µg/mL

S2X259 Fab
Kd [18]: 10 nM | Kd [19]: 0.4 nM | Kd [20]: 3.6 nM | Kd [21]: 4000 nM | Kd [22]: 1.4 nM | Kd [23]: 0.2 nM | Kd [24]: 1.1 nM | Kd [25]: 64 nM
